Laboratory results as given in a protein production outcome set (Wang et al. 2014).

experiment: label from the status in PepcDB records

Sequence | protein production
MEKYQNLLVVIDPNQDDQPALRRAVYIVQRNGGRIKAFLPVYDLSYDMTTLLSPDERNAMRKGVINQKTAWIKQQARYYLEAGIQIDIKVIWHNRPYEAIIEEVITDKHDLLIKMAHQHDKLGSLIFTPLDWQLLRKCPAPVWMVKDKEWPEYGTIVVAANLSNEESYHDALNLKLIELTNDLSHRIQKDPDVHLLSAYPVAPINIAIELPDFDPNLYNNALRGQHLIAMKELRQKFSIPEEKTHVKEGLPEQVIPQVCEELNAGIVVLGILGRTGLSAAFLGNTAEQLIDHIKCDLLAIKPDGFTCPITVDSDNE | not failed
MELAAILFSMFFAMNIGASGAAASMGIAYGSEAVKKKFHALLICAAGVLSGAVIGGGNVVKTISSGIIPERVISLEIVCIIIGSAALSLFIANVLGIPLSTSEVTVGSVVGVGVAYQVLYVKSLLVIVSFWVIVPIVAFAFTFAMAKIMKKTIKRPASGKKAKVLAVILLITGFFEAFSAGMNNVANAVGPLVAAHVLTVGEGTLYGGLFVALGALLLGRRVLETNGKKITRFSKGEGIILSGTGAGLVITSSIFGLPVPLAQVTSSSIIGMGMAKNGGNVFHKQVVKTMLKVWVVSPFLSLSLSYMLVSLLLKGDYYALIVVTSVLLASVGTISLMRAVKKEHSSVHEQGGGI | failed
MELANKMLHALEHEDMALAKKYFDEVVQAGTDEEQYYLAEELFALGFLDETEDLYELLLAKYKDEGELLVRAAEVALEKDDMDAAQDYLEKVNKEDEAYIESLLVLADLYQMQGLFEVSEQKLLEAKQMAPNEPIIDFALGEYYLSQARFASAVQSYQTAVEAGLTIISNGAVSVYERIAEAFAASGAFEEALPYYERALEDKESVDTLFGMGLTAYQAKDYTKAIHALEHLREHDPSYTTLYSYLAKSYEENGEPEKAIAVLRDGLTQDEFNKEMFLEAGKLAVTLRLPEEAEEFYRQAIVLDEEFSEAIMQLNKLLLAKENYEGVIELVEGLGEEVISEPQIFWDVSVAYQETEQYNKAKANYELAYPHFTNNPTFLKEYGLFLREEGEHAKSQEVLRSYLELEPEDTEILSLFD | failed
MELAVHDATEDGAGYATAASSWVVVEPEFVVDVTDIRSFVQCPRLYYLNKLSGLPLKYPVTKGTIVHEVFGDLLRGRDLEASVAQRVDEAGLELGLLGRSRAEVEADVRDNASAIEGWLQQGRLTDEDEWRSEYTLVSERFGIKGRCDAIRRGMPVELKTGKNTNREPRFHDKVQAACYALMLDEHGVPADTGTLLYTKNAAVDRSEASGDLSPAKEFSIGRGFLEFVVRERNHLAALEASDGPPTGYEADAKCDYCFEQDTCMVVSGRLDQESKAGRIGDPVPAEERAYFDELYDAIEAERGAIHDEYRKLWEQSPDERAADDRAVVGLSPAEQTELPDGRWRLTATRPGSAASKIREGDRVLASDGDPVAGRAEMARVERLDADRVEVTTDEPVSLCRLDVYPSELSVDRMLTALHDAVLKSDQRRTDLLFDRASPRFEGGDHDLIPNNDAQNAAVNRALNAEDFALVHGPPGTGKTYTIATLVQAFVARGDRVLVSAFTNRAVDNALDALRQQGHEDIVRVGTETGVRADMQDLRLDRSGDPGERAAALRSAPVVAATTATCGSRILRELEFDVVLVDEASQLTEPDTLAAINRGARFVLVGDHEQLPPVVRSGGRLSKSLFERLHETYPEASVMLDQQYRMSQRIQAFSSREFYDGQLRPASSEVAGQRLTDVGVDPGGAVHGGVTFYDVPGTDDAHVDPAEADRVADVVTAYVDAGLDPGEIGVIAPFRAQVAEIGRRTPAGVAVDTVDRFQGSSKEVIVVSFVARGTLEGPIFEDHRRVNVALSRAKKSLVLVGDERALRSEPLYDRMIDWADMELEHHHHHH | failed
MELFTLGACRQVGKSCFVLKTSEGLVMLDCGLHPSYQDDRRYPNFSLAFSYGPLKAVFITHCHADHVGALPILTERWGYDGPIYMSEPTRKLSYYILEECVGSWGGDDEWTDSSRSEWSYTQREVESCLTKVTIMEPGQSISVGENVQVHSWMAGHVLGAYMFSIVVDNHRILYTGDFTSCPTFHLPPARVDDIPYPPDVILSEATYATSFKDGRLNNQVEFIQNVLDCLLDGGKVLVPVFAIGRAQELLLLLGK | not failed
MELKTAADSNFSESEESPETKGIRILEGDPKKAIIKLAVPMIVAMSVQTLYQLIDTFWVSGLGADALAAMGFVFPFYFISMALSNGLGIGGGAAISRKIGARDKAGADNVAVHTIIIMMLLVLIFTIPFYVFAPHIFSLVGAGKTTDLAVAYARVIFLGSIVIFFTNVANSILRSEGDSKRAMYAMVLGAALNIVIDPIFIYTFKMGIAGAAWATLLSLAVSSAMMLNWLFFKKDTFVSFDFKDFSFEKSIINDIFRIAVPASAQQLSMSLSMLVLNLIIVNVSSTDGVAVYSTGWRVATIAIAPLVGIATAVVSVSGAAFGAKDFEKAKTAHTYAVKVGLLIEGGVAAFTFIFAPQIAAVFTQTEEAAHIAPDLIQFLRIICIFYPTVSLGMLSTSLFQGAGKGFSALTANLLRTIVFTPLFAAFFAFNLNMGQVGAWWGIVAGNAIGAGVVYVWVKLYLSTILKTGPLHKPFEQGI | failed
MELLCHEVDPVRRAVRDRNLLRDDRVLQNLLTIEERYLPQCSYFKCVQKDIQPYMRRMVATWMLEVCEEQKCEEEVFPLAMNYLDRFLAGVPTPKSHLQLLGAVCMFLASKLKETSPLTAEKLCIYTDNSIKPQELLEWELVVLGKLKWNLAAVTPHDFIEHILRKLPQQREKLSLIRKHAQTFIALCATDFKFAMYPPSMIATGSVGAAICGLQQDEEVSSLTCDALTELLAKITNTDVDCLKACQEQIEAVLLNSLQQYRQDQRDGSKSEDELDQASTPTDVRDIDL | not failed
MELLIRTEQLLLQNEKNWELYLSNREEEKPFDFYKDMKPFVDEAKRCADDFLELAIPWVNTERPPYLGELQLRQACDNVQMTAVSAFNGRSFYKHFLDHYQSTKYTLTRVRDFLKRKEESM | not failed
MELLKEYNPYLEYRDGELFIEGVSLKELAQTFGTPLYVYSSNFIKERFEAYRKAFPDALICYAVKANFNPHLVKLLGELGAGADIVSGGELYLAKKAGIPPERIVYAGVGKTEKELTDAVDSEILMFNVESRQELDVLNEIAGKLGKKARIAIRVNPDVDPKTHPYIATGMQKSKFGVDIREAQKEYEYASKLENLEIVGIHCHIGSQILDISPYREAVEKVVSLYESLTQKGFDIKYLDIGGGLGIKYKPEDKEPAPQDLADLLKDLLENVKAKIILEPGRSIMGNAGILITQVQFLKDKGSKHFIIVDAGMNDLIRPSIYNAYHHIIPVETKERKKVVADIVGPICETGDFLALDREIEEVQRGEYLAVLSAGAYGFAMSSHYNMRPRAAEVLVENGSVKLIRKRENYDYIVEPSLDI | not failed
MELNQPPLPTEIDGDAYHKPSFNDLGLKESVLKSVYEAGFTSPSPIQEKAIPAVLQGRDVIAQAQTGTGKTAAFALPIINNLKNNHTIEALVITPTRELAMQISDEIFKLGKHTRTKTVCVYGGQSVKKQCEFIKKNPQVMIATPGRLLDHLKNERIHKFVPKVVVLDESDEMLDMGFLDDIEEIFDYLPSEAQILLFSATMPEPIKRLADKILENPIKIHIAPSNITNTDITQRFYVINEHERAEAIMRLLDTQAPKKSIVFTRTKKEADELHQFLASKNYKSTALHGDMDQRDRRSSIMAFKKNDADVLVATDVASRGLDISGVSHVFNYHLPLNTESYIHRIGRTGRAGKKGMAITLVTPLEYKELLRMQKEIDSEIELFEIPTINENQIIKTLHDAKVSEGIISLYEQLTEIFEPSQLVLKLLSLQFETSKIGLNQQEIDAIQNPKEKTPKPSNKKTPQHERARSFKKGQHRDRHPKTNHYSKKPKRR | failed
MELRIMTGKLILLGFIIYQCVFSESDNLPWLVFSLLVYVCINLGIAILPKGKTKKLFIIISVIISIVSYAEVHPLFILFLPFTLCEGAADFGLPKWAVLAASIVPVLFINESISAVYALTAAFQFLLYWAASHDAARIEKLEHHIDQTRRDLQKLTNMLRENKEFIRQSEYTYKLEERNRLSQEIHDKIGHSMTGALIQLEAAKRVLDIDKEKASELLQNAINISKDGIENIRLTLKSVKPPSEQMGIHRLRLFIDECSAQYHMNISFLHKGDLDVISQIQWKIIFENITEALTNSVKYAEATHVSICIHVLNTLIKAEVKDNGKGRQKIKKGMGIIGMEERAASVNGKVIVDGSNGFSVTTLLPKHE | failed
MELRTPGTKWSPQGIGSLRRVVWDYSTPEISLFSEEGLKGEQVKLTEALKNSQGLEKPLQVASATVSAGLWLLYPKPLFEDTPYILEPGEYPTSEAWGTSDPSVGSLKPMRLGCPSVEKPGEPRAVVYEAPGFQGRSWEVSRDIYNLQQPEDSQSPHLASVGSLRVLGGCWVGYEKEGFRGHQYLLEEGEYPDWSHWGGYDELLTSLRVIRTDFGDPAVVLFEAMDFEGHGVEVSKALPDVELVQHGPSTQAIHVLSGVWVAYQEVGFSGEQYVLEKGVYRNCEDWGAGNSTLASLQPVLQVGEHDLHFVSKIQLFSRPDFLGDHFSFEDDQAALPASFRPQSCRVHGGSWILFDETNFEGDQHILSEGEFPTLTAMGCLASTVLGSLQKVSLHFSEPSIFLYGLECFEGKEIELSREVRSLQAEGFNNHVLSVRIKGGIWVLCEHSDFRGRQWLVGSCEITNWLTYSGTQRVGSLYPIKQRRVYFRLWNAALGGFLAVPDHVEDMKAGRVVVADPQAGGSCIWYYEDGLLKNQMAPTMSLQVIGPPSPGSKVVLWAESRLPRQTWSISESGHICSQMFEGQILDVKGGRGYDRDHVVLWEPDEDRASQIWTIHVL | failed
MELWTHPTPAAPRLATSTRTRWRRTSRCSQPWATTPGTNSSDASRTPTTASASATSKPQSASARARSVRRSPDCTPRAWSRGARKDRGATTNRPRRPKFCSKRSTTCEATMSNDNETMVADRDPEETREMVRERYAGIATSGQDCCGDVGLDVSGDGGCCSDETEASGSERLGYDADDVASVADGADLGLGCGNPKAFAAMAPGETVLDLGSGAGFDCFLAAQEVGPDGHVIGVDMTPEMISKARENVAKNDAENVEFRLGEIGHLPVADESVNVVISNCVVNLAPEKQRVFDDTYRVLRPGGRVAISDVVQTAPFPDDVQMDPDSLTGCVAGASTVDDLKAMLDEAGFEAVEIAPKDESTEFISDWDADRDLGEYLVSATIEARKPARDD | failed
MEMESAAASTRFHQPHMERKMSAMACEIFNELRLEGKLCDVVIKVNGFEFSAHKNILCSCSSYFRALFTSGWNNTEKKVYNIPGISPDMMKLIIEYAYTRTVPITPDNVEKLLAAADQFNIMGIVRGCCEFLKSELCLDNCIGICKFTDYYYCPELRQKAYMFILHNFEEMVKVSAEFLELSVTELKDIIEKDELNVKQEDAVFEAILKWISHDPQNRKQHISILLPKVRLALMHAEYFMNNVKMNDYVKDSEECKPVIINALKAMYDLNMNGPSNSDFTNPLTRPRLPYAILFAIGGWSGGSPTNAIEAYDARADRWVNVTCEEESPRAYHGAAYLKGYVYIIGGFDSVDYFNSVKRFDPVKKTWHQVAPMHSRRCYVSVTVLGNFIYAMGGFDGYVRLNTAERYEPETNQWTLIAPMHEQRSDASATTLYGKVYICGGFNGNECLFTAEVYNTESNQWTVIAPMRSRRSGIGVIAYGEHVYAVGGFDGANRLRSAEAYSPVANTWRTIPTMFNPRSNFGIEVVDDLLFVVGGFNGFTTTFNVECYDEKTDEWYDAHGMSIYRSALSCCVVPGLANVEEYAARRDNFPGLALRDEVKYSASTSTLPVRASSFS | failed
MEMMQDSFQVHRIPQSKYVDGVRWLPQASALNRFFATASYDADCDSSSIEIQSLDPNPRGNHNTNPLIESLSSWTSPSRVSSLEVAGNGGGGGSFKPMVSAATSSGSLHVLMIDLVEGAAIEEFYAAEGERFHVGRVEGVDWREGGECVTVGEDGRVNVVKIVNGEGLRYRKVFDGNGLVAYRAVKWASPTEFVTGGYGFGLQLWDQRKSGEAVSQLKGNWFQGKTSAIVHSIDIHPSRKHTCIAGGSSGTVFAWDLRWPQQPIVLSGVGASENINNPLSESEVWEVQYDSYTKSNVSSSRILPVMTCSEDGILGIIEQGEEPIELLAEPCAINSFDIDRQNPQDVICSLEWESIAVFSRP | failed
